This assay relates to PPIs identified as affected by the SH3 domain deletions. Nature of the assay: Liquid DHFR-PCA low-throughput validation of PPIs affected by SH3 deletion (Fig. S1D-E). It is filed as cell-based, Saccharomyces cerevisiae. Conditions: label = prey, liquid DHFR-PCA, prey _1 = lost, _2 = gained in screen. In a few lines: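 Yeast diploids from DHFR-PCA mating grown 48 h in synthetic complete MSG medium pH 6.0 with NAT and HPH, normalized to 1 OD and diluted to 0.1 OD in liquid PCA selection medium. Growth followed by OD every 15 min for 72 h at 30 °C.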

B1: YOL100W_1 (protein, UniProt Q12236 1-1081, looked up)
Serine/threonine-protein …: MYFDKDNSMSPRPLLPSDEQKLNINLLTKKEKFSHLDPHYDAKATPQRSTSNRNVGDLLLEKRTAKPMIQKALTNTDNFIEMYHNQQRKNLDDDTIKEVMINDENGKTVASTNDGRYDNDYDNNDINDQKTLDNIAGSPHMEKNRNKVKIEHDSSSQKPIAKESSKAQKNIIKKGIKDFKFGSVIGDGAYSTVMLATSIDTKKRYAAKVLNKEYLIRQKKVKYVSIEKTALQKLNNSPSVVRLFSTFQDESSLYFLLEYAPNGDFLSLMKKYGSLDETCARYYAAQIIDAIDYLHSNGIIHRDIKPENILLDGEMKIKLTDFGTAKLLNPTNNSVSKPEYDLSTRSKSFVGTAEYVSPELLNDSFTDYRCDIWAFGCILFQMIAGKPPFKATNEYLTFQKVMKVQYAFTPGFPLIIRDLVKKILVKNLDRRLTISQIKEHHFFKDLNFKDGSVWSKTPPEIKPYKINAKSMQAMPSGSDRKLVKKSVNTLGKSHLVTQRSASSPSVEETTHSTLYNNNTHASTESEISIKKRPTDERTAQILENARKGINNRKNQPGKRTPSGAASAALAASAALTKKTMQSYPTSSSKSSRSSSPATTSRPGTYKRTSSTESKPFAKSPPLSASVLSSKVPMPPYTPPMSPPMTPYDTYQMTPPYTTKQQDYSDTAIAAPKPCISKQNVKNSTDSPLMNKQDIQWSFYLKNINEHVLRTEKLDFVTTNYDILEKKMLKLNGSLLDPQLFGKPRHTFLSQVARSGGEVTGFRNDPTMTAYSKTEDTYYSKNIIDLQLLEDDYRIEGGDLSELLTNRSGEGYKCNQNSSPMKDDDKSESNNKGSSVFSGKIKKLFHPTSAAETLSSSDEKTKYYKRTIVMTSFGRFLVFAKRRQPNPVTNLKYELEYDINLRQQGTKIKELIIPLEMGTNHIVVIQTPYKSFLLSTDKKTTSKLFTVLKKILNSNTNKIEKELLQRNQKVIERRTSSSGRAIPKDLPTSKSPSPKPRTHSQSPSISKHNSFSESINSAKSNRSSRIFETFINAKEQNSKKHAAPVPLTSKLVNGLPKRQVTVGLGLNTGTNFKNSSAKSKRS
B1: the “Ratio (Deletedscore / WTscore)” value (bait MYO3) is 0.53.

B2: YNL106C_1 (protein, UniProt P50942 1-1183, looked up)
Polyphosphatidylinositol …: MKILLSKQQTRKIAIVSETHGLVFRPINSKNSRRSTCAVELVPKAELNGNGFRRLSNHEIYGFIGLIEIEGLMFIATITGKSKVAQPIPNKTVNKIYAVDFFCLNNSKWDFMDIDSSGYPIVTNDGDFAISSPPSISTHSSRSSLRSSSSRSLNAQEQAPKHPCHELRKLLSNGSFYYSTDFDLTCTLQKRGFTEHSLSFDDFDREFMWNSFLMDEIITYRDRLDVTAKELLDQRGFLTTVIRGFAETIFSYINRLKVGLTIISRQSWKRAGTRFNARGIDDDGHVANFVETEMIMYSSQYCYAFTQIRGSLPIFWEQDTSLISPKIQITRSVEATQPTFDEHFIRLFKKYGPVHIINLLSTKSSEIQLSRRYKEQLKNSEKMKIGRDVFLTSFDFHRETSQDGFAAASRIIPKIRNTILDAGYFSYDVKEGRLISEQDGVFRTNCLDCLDRTNLIQQTISLAVFKLFLEDFRLVKPSSFIDDNEFVQKVNALWADNGDQISQIYTGTNALKSSYSRKGKMSFSGALSDATKSVSRMYINNFVDKGKQQNIDTLLGKLPHQQVVELYDPICEYVNERLLESEEKFTTHSNINLFVGTFNVNGNSRRADLSKWLFPIGDKFKPDVVVLGLQEVIELTAGSILNADYTKSSFWETMVTDCLNQYEEKYLLLRVEQMSSLLILFFARSDRAYNIKEVGGSTKKTGFGGITGNKGAVAIRFDYGATSFCFVNTHLSAGASNIDERRNDYNNIYRNITFPRSKTIPHHDSLFWLGDLNYRITLTNDEVRRELRAQKDGYIDRLLQYDQLTQEINEGVVFQGFKEPTLQFRPTYKYDYGTDNYDTSEKARTPSWTDRIIYKGENLHPLAYSDAPLKISDHKPVYAAYRANVKFVDEKEKLNLVEKLYAEYKNTHPEALTTGPDELSHARMEKQKESIPLDATVQSAGIKLIDLDDTSSCVSPLLSGPSPQPSVVGPGGLSNVSPDKSKLNVLPPPPPTSRHNKEPSSKLLSPTKEISIVSVSPRKGESNLPALERHSTPKPLPPVPALSLSKPVSLQKSSSELQHAKETIDNGKIVPRPCPPIRRKSSTAPDEISTSTKNSGVSTTEDPEPAKASTKPEKPPVVKKPHYLSVAANKLNTSQEHSIKVSPSNSKSEEELPCKKKSKPKVPAKNPELEKLSVHPLKPCDPN
For the molecule B2, the “Ratio (Deletedscore / WTscore)” value (bait LSB3) was found to be 0.7587.

B3: YNL287W_2 (protein, UniProt P32074 1-935, looked up)
Coatomer subunit gamma: MSAHTYKKFENSTSGDLPDKMTIYQDCMNTFNESPVNSKRCRLLISRLLRLLAQGETFPQNEATALFFSISKLFQHQNDPLRQAVYLAIKELSGISEDVLMATSSIMKDVQNGSDLIKPDAIRSLTYVLDESTAFSAERLLKSAVVSRHPSISSAALCTSYHLLPISEVTIRRFTNETQEAVLDLKQFPNQHGNSEYYPNSTYISQYHALGLLYQLKKTDKMALLKLVRHFSENNSMKNQLAKVELVKIVNDLIYRDPQLFSQFRPLLSDWLSNKFESVQLETAKLITSFATRNSRLVAPELYAAAISALQSLLTVPRVSSRFAALRILNRISMVSPEKIVVCNPELESLINDSNRNISTYAITTLLKTGTSKNISSLISTITNFIHDVSDDFKIIIIDAVRTLSLNFPQEWKSILNFLIDVLKNSEGGFKFKNSIVEALIDIVSFVPQSKELALENLCDFIEDCEFNEILVRILHLLGKEGPSAPNPSLYVRHIYNRVVLENSIIRSAAVVALSKFALTKNDPTLYESIISLLKRIANDKDDEVRDRATIALEFIDSARNKDDVIAQNLIESKYFYDIPSLESKLSSYISSNTDSFATAFDVNQVRKFTEDEMKAINLKRKQEQIFNQKSETTLDTTPEAESVPEKRADANSFAGPNLDDHQEDLLATKYADELLSIEQIKPFGQLVNSSRAISLTEPEAEFVVRGVKHLFKDNVVLQFNITNTLTDIALDNVSVVCTPEISDEAELEELFTLQVDRLLPSEEAACYVAFKKLDEIVMEGFLNNLTFTTKEINPDTNEPFDGDEGFQDEYEIDSIFLNAGDYVKSSFTGNFSATFDELPCEEVAVFNIQEDLSIQEVVDKIILNSSCLPVESTQFAPSDSNSHTLKLFGKSALTGSKVALQIKMIKSSKGLALKVHGKGEDSLLCSDLVNGLMQ
As to B3, the “Ratio (Deletedscore / WTscore)” value reads like this: (bait ABP1) 1.101; (bait LSB3) 1.751.

B4: YJL020C_1 (protein, UniProt P47068 1-1157, looked up)
Myosin tail …: MSEPEVPFKVVAQFPYKSDYEDDLNFEKDQEIIVTSVEDAEWYFGEYQDSNGDVIEGIFPKSFVAVQGSEVGKEAESSPNTGSTEQRTIQPEVEQKDLPEPISPETKKETLSGPVPVPAATVPVPAATVPVPAATAVSAQVQHDSSSGNGERKVPMDSPKLKARLSMFNQDITEQVPLPKSTHLDLENIPVKKTIVADAPKYYVPPGIPTNDTSNLERKKSLKENEKKIVPEPINRAQVESGRIETENDQLKKDLPQMSLKERIALLQEQQRLQAAREEELLRKKAKLEQEHERSAVNKNEPYTETEEAEENEKTEPKPEFTPETEHNEEPQMELLAHKEITKTSREADEGTNDIEKEQFLDEYTKENQKVEESQADEARGENVAEESEIGYGHEDREGDNDEEKEEEDSEENRRAALRERMAKLSGASRFGAPVGFNPFGMASGVGNKPSEEPKKKQHKEKEEEEPEQLQELPRAIPVMPFVDPSSNPFFRKSNLSEKNQPTETKTLDPHATTEHEQKQEHGTHAYHNLAAVDNAHPEYSDHDSDEDTDDHEFEDANDGLRKHSMVEQAFQIGNNESENVNSGEKIYPQEPPISHRTAEVSHDIENSSQNTTGNVLPVSSPQTRVARNGSINSLTKSISGENRRKSINEYHDTVSTNSSALTETAQDISMAAPAAPVLSKVSHPEDKVPPHPVPSAPSAPPVPSAPSVPSAPPVPPAPPALSAPSVPPVPPVPPVSSAPPALSAPSIPPVPPTPPAPPAPPAPLALPKHNEVEEHVKSSAPLPPVSEEYHPMPNTAPPLPRAPPVPPATFEFDSEPTATHSHTAPSPPPHQNVTASTPSMMSTQQRVPTSVLSGAEKESRTLPPHVPSLTNRPVDSFHESDTTPKVASIRRSTTHDVGEISNNVKIEFNAQERWWINKSAPPAISNLKLNFLMEIDDHFISKRLHQKWVVRDFYFLFENYSQLRFSLTFNSTSPEKTVTTLQERFPSPVETQSARILDEYAQRFNAKVVEKSHSLINSHIGAKNFVSQIVSEFKDEVIQPIGARTFGATILSYKPEEGIEQLMKSLQKIKPGDILVIRKAKFEAHKKIGKNEIINVGMDSAAPYSSVVTDYDFTKNKFRVIENHEGKIIQNSYKLSHMKSGKLKVFRIVARGYVGW
On to B4, for which the “Ratio (Deletedscore / WTscore)” value stood at 0.4075 (bait MYO3) and 0.4895 (bait MYO5).

The values above are taken from article PMC7954794, “Protein context shapes the specificity of SH3 domain-mediated interactions in vivo” (Nature Communications, 2021).
